The values below come from patent publication US20230044380A1.

The assay deals with T1, CD70 (UniProt P32970).
T1 sequence (looked up): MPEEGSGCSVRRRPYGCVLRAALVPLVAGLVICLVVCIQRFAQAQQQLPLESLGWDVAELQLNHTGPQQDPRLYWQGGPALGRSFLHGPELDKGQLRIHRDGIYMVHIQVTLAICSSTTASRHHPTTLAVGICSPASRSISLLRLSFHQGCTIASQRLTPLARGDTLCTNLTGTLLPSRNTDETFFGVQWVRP
The assay can be described thus: cell-based or functional assay.

B1: CD27.Z (CD70 CAR) (protein)
chain: ATPAPKSCPERHYWAQGKLCCQMCEPGTFLVKDCDQHRKAAQCDPCIPGVSFSPDHHTRPHCESCRHCNSGLLVRNCTITANAECACRNGWQCRDKECTECDPLPNPSLTARSSQALSPHPQPTHLPYVSEMLEARTAGHMQTLADFRQLPARTLSTHWPPQRSLCSSDFIRILVIFSGMFLVFTLAGALFLHQRRKYRSNKGESPVEPAEPCRYSCPREEEGSTIPIQEDYRKPEPACSPRVKFSRSADAPAYQQGQNQLYNELNLGRREEYDVLDKRRGRDPEMGGKPRRKNPQEGLYNELQKDKMAEAYSEIGMKGERRRGKGHDGLYQGLSTATKDTYDALHMQALPPR
Consider B1, for which the percentage of CD107a positive T cells in CD8 positive T cells; CD27 CAR + LACO (A40C.28) T cells stimulated by 786-O (CD70 + + +) was found to be 27.3%, the percentage of CD107a positive T cells in CD8 positive T cells; CD27 CAR + LACO (A40C.28) T cells stimulated by A498-CBG (CD70 + + +) is 22.7%, the percentage of CD107a positive T cells in CD8 positive T cells; CD27 CAR + LACO (A40C.28) T cells stimulated by A549-CBG (CD70 +) came to 3.3% and the percentage of CD107a positive T cells in CD8 positive T cells; CD27 CAR + LACO (A40C.28) T cells stimulated by HS766T-CBG (CD70 +) was found to be 9.7%. The percentage of CD107a positive T cells in CD8 positive T cells; CD27 CAR + LACO (A40C.28) T cells stimulated by Jeko-1-CBG (CD70 + + +) came out at 34.4%, the percentage of CD107a positive T cells in CD8 positive T cells; CD27 CAR + LACO (A40C.28) T cells stimulated by OVCAR3 (CD70 +) was 6.9%, the percentage of CD107a positive T cells in CD8 positive T cells; CD27 CAR + LACO (A40C.28) T cells stimulated by PC3-CBG (CD70 + +) stood at 15.9% and the percentage of CD107a positive T cells in CD8 positive T cells; CD27 CAR + LACO (A40C.28) T cells stimulated by Raji-CBG (CD70 + + +) came out at 30.3%. Further, the percentage of CD107a positive T cells in CD8 positive T cells; CD27 CAR + LACO (A40C.28) T cells stimulated by SKOV3-CBG (CD70 +) was determined as 3.3%, the percentage of CD107a positive T cells in CD8 positive T cells; CD27 CAR + LACO (A40C.28) T cells stimulated by THP1 (CD70 + +) turned out to be 22.2%, the percentage of CD107a positive T cells in CD8 positive T cells; CD27 CAR + LACO (A40C.28) T cells stimulated by U87-CBG (CD70 + + +) amounted to 32% and the percentage of CD107a positive T cells in CD8 positive T cells; CD27 CAR + LACO (A40C.28) T cells stimulated by U937 (CD70 + +) came out at 9%. Besides, the percentage of CD107a positive T cells in CD8 positive T cells; CD27 CAR T cells stimulated by 786-O (CD70 + + +) turned out to be 27.6%, the percentage of CD107a positive T cells in CD8 positive T cells; CD27 CAR T cells stimulated by A498-CBG (CD70 + + +) stood at 30.8%, the percentage of CD107a positive T cells in CD8 positive T cells; CD27 CAR T cells stimulated by A549-CBG (CD70 +) came out at 4.4% and the percentage of CD107a positive T cells in CD8 positive T cells; CD27 CAR T cells stimulated by HS766T-CBG (CD70 +) was 15%. The percentage of CD107a positive T cells in CD8 positive T cells; CD27 CAR T cells stimulated by Jeko-1-CBG (CD70 + + +) was found to be 23.1%, the percentage of CD107a positive T cells in CD8 positive T cells; CD27 CAR T cells stimulated by OVCAR3 (CD70 +) stood at 8.8%, the percentage of CD107a positive T cells in CD8 positive T cells; CD27 CAR T cells stimulated by PC3-CBG (CD70 + +) was 16% and the percentage of CD107a positive T cells in CD8 positive T cells; CD27 CAR T cells stimulated by Raji-CBG (CD70 + + +) came out at 29.9%. In addition, the percentage of CD107a positive T cells in CD8 positive T cells; CD27 CAR T cells stimulated by SKOV3-CBG (CD70 +) was found to be 3.2%, the percentage of CD107a positive T cells in CD8 positive T cells; CD27 CAR T cells stimulated by THP1 (CD70 + +) was determined as 20.2%, the percentage of CD107a positive T cells in CD8 positive T cells; CD27 CAR T cells stimulated by U87-CBG (CD70 + + +) was 37.8% and the percentage of CD107a positive T cells in CD8 positive T cells; CD27 CAR T cells stimulated by U937 (CD70 + +) came out at 7.1%.
